Where two headings read alike, the source gives them in different places.
Legend:
rabTFPI K1K2 [1] = molecular target: T1, rabTFPI K1K2 (rabbit, limits assumed); test: ELISA, TFPI on streptavidin plate
T1 construct: also called Rabbit TFPI K1K2
T1 chain: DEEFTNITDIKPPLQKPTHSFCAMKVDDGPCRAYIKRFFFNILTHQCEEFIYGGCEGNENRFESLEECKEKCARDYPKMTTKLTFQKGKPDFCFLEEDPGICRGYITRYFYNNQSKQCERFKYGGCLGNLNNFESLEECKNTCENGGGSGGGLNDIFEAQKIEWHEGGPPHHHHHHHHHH

rabTFPI K1K2 [2] = molecular target: T1, rabTFPI K1K2; test: SPR (summary table)
rabTFPI K1K2 [3] = molecular target: T1, rabTFPI K1K2; test: SPR, antibody ligand, TFPI analyte
humTFPI K1K2 [4] = molecular target: T2, humTFPI K1K2 (human); test: SPR, antibody ligand, TFPI analyte
T2 construct: Biotinylated on the AviTag for ELISA; also called Human TFPI alpha K1K2; humTFPI K1K2-aviHis10

rabTFPI K1K2 [5] = molecular target: T1, rabTFPI K1K2; test: ELISA, TFPI on streptavidin plate
rabTFPI K1K2 [6] = molecular target: T1, rabTFPI K1K2; test: SPR, antibody ligand, TFPI analyte
humTFPI K1K2 [7] = molecular target: T2, humTFPI K1K2; test: SPR, antibody ligand, TFPI analyte; remark: listed apart in the source

B1: 4D8-Vk1.1 x VH1.2 (antibody, human IgG1, kappa, V domains shown)
VH: EVQLVESGGGLVQPGGSLRLSCAASGYTFTDYNLDWVRQAPGKGLEWVGDINPINGATLYNQKFKGRFTISRDNAKNSLYLQMNSLRAEDTAVYYCARYYGDYDAMDYWGQGTLVTVSS
VL: DIQMTQSPSSLSASVGDRVTITCKASQDVHTAVAWYQQKPGKAPKLLIYWASTRHTGVPSRFSGSGSGTDYTLTISSLQPEDFATYYCQQHYTTPYTFGQGTKLEIKR
notes: Humanized 4D8 variant
EC50 (rabTFPI K1K2 [1]): 0.0783 nM

B2: 4D8-Vk1.0 x VH1.3 (antibody, human IgG1, kappa, V domains shown)
VH: EVQLVESGGGLVQPGGSLRLSCAASGYTFTDYNLDWVRQAPGKGLEWVADINPINGATLYNQKFKGRATISRDNAKNSLYLQMNSLRAEDTAVYYCARYYGDYDAMDYWGQGTLVTVSS
VL: DIQMTQSPSSLSASVGDRVTITCKASQDVHTAVAWYQQKPGKAPKLLIYWASTRHTGVPSRFSGSGSGTDFTLTISSLQPEDFATYYCQQHYTTPYTFGQGTKLEIKR
notes: Humanized 4D8 variant
EC50 (rabTFPI K1K2 [1]): 0.0556 nM

B3: hz4F36 (antibody, human IgG4 S228P, kappa, V domains shown)
VH: EVQLVESGGGLVKPGGSLRLSCAASGFTFSNYAMSWVRQTPEKRLEWVATISRSGSYSYFPDSVQGRFTISRDNAKNSLYLQMNSLRAEDTAVYYCARLGGYDEGDAMDSWGQGTTVTVSS
VL: DIVMTQTPLSLSVTPGQPASISCKSSQSLLESDGKTYLNWYLQKPGQSPQLLIYLVSILDSGVPDRFSGSGSGTDFTLKISRVEAEDVGVYYCLQATHFPQTFGGGTKVEIKR
notes: also called Novo2021; Anti-TFPI-4F36
Kd (rabTFPI K1K2 [2]): 1.81 nM | Kd (rabTFPI K1K2 [3]): 1.81 nM | koff (rabTFPI K1K2 [3]): 0.0076 s⁻¹ | kon (rabTFPI K1K2 [3]): 4.2e+06 M⁻¹ s⁻¹

B4: TFPI-24 (antibody, human IgG1, lambda, V domains shown)
VH: EVQLVESGGGSVQPGRSLRLSCAVSGLTIDNYAMQWVRQRPGKGLEWVSGISGNSRSIGYADSVKGRLTISRDNAKNSLYLQIDSLRADDTALYYCAIFLHESDYWGQGTLVTVSS
VL: QSVLTQPPSVSGTPGQRVTISCSGSTSNIGTMYVHWYQHVPGTAPKLLIYRNNHRPSGVPDRFSGSKSGTSGSLAISGLRSEDEADYYCLAWDDTLRAYVFGTGTKVTVLG
notes: Phage-derived, human IgG1-3M; also called mAb-TFPI-24; clone 24
Kd (humTFPI K1K2 [4]): 3.68 nM | koff (humTFPI K1K2 [4]): 0.00971 s⁻¹ | kon (humTFPI K1K2 [4]): 918000 M⁻¹ s⁻¹

B5: TFPI-118 (antibody, human IgG1, lambda, V domains shown)
VH: EVQLVESGGGLVQPGRSLRLSCAVSGLTIDNYAMQWVRQAPGKGLEWVSGISGNSRSIGYADSVKGRFTISRDNAKNSLYLQMNSLRAEDTALYYCAIFLHESDYWGQGTLVTVSS
VL: QSVLTQPPSASGTPGQRVTISCSGSTSNIGTMYVHWYQQLPGTAPKLLIYRNNHRPSGVPDRFSGSKSGTSASLAISGLRSEDEADYYCLAWDDTLRAYVFGTGTKVTVLG
notes: Germlined variant of TFPI-24: VL of TFPI-113 paired with VH of TFPI-108
Kd (rabTFPI K1K2 [2]): 5.79 nM | Kd (rabTFPI K1K2 [3]): 5.79 nM

B6: 4D8.b1 (antibody, mouse IgG1, kappa)
heavy: EVLLQQSGPELVKPGASVKIPCKASGYTFTDYNLDWVKQSHGKSLEWIGDINPINGATLYNQKFKGKATLTVDQSSSTAYMELRSLTSEDTAVYYCSIYYGDYDAMDYWGQGASVTVSSAKTTPPSVYPLAPGSAAQTNSMVTLGCLVKGYFPEPVTVTWNSGSLSSGVHTFPAVLQSDLYTLSSSVTVPSSTWPSETVTCNVAHPASSTKVDKKIVPRDCGCKPCICTVPEVSSVFIFPPKPKDVLTITLTPKVTCVVVDISKDDPEVQFSWFVDDVEVHTAQTQPREEQFNSTFRSVSELPIMHQDWLNGKEFKCRVNSAAFPAPIEKTISKTKGRPKAPQVYTIPPPKEQMAKDKVSLTCMITDFFPEDITVEWQWNGQPAENYKNTQPIMDTDGSYFVYSKLNVQKSNWEAGNTFTCSVLHEGLHNHHTEKSLSHSPGK
light: DIVMTQSHKFMSTSVGDRVSITCKASQDVHTAVAWYQQKPGQSPRLLIYWASTRHTGVPDRFTGCGSGTDYTLTISSVQAEDLALYYCQQHYTTPYTFGGGTKLEMKADAAPTVSIFPPSSEQLTSGGASVVCFLNNFYPKDINVKWKIDGSERQNGVLNSWTDQDSKDSTYSMSSTLTLTKDEYERHNSYTCEATHKTSTSPIVKSFNRNEC
notes: also called mouse 4d8.b1; TFPI 4D8
EC50 (rabTFPI K1K2 [5]): 0.0976 nM | Kd (rabTFPI K1K2 [6]): 0.63 nM | koff (rabTFPI K1K2 [6]): 0.00126 s⁻¹ | kon (rabTFPI K1K2 [6]): 2.01e+06 M⁻¹ s⁻¹

B7: 7A4.D9 (antibody, V domains shown)
VH: EVQLQQSGPELVKPGASVKMSCKASGYTFTSYVMHWVKQKPGQGLEWIGYLNPYNDGTKYNEKFKGKASLISDKSSSTVYMELSSLTSEDSAVYYCATTLLYAMDYWGQGSSVTVSS
VL: DIVLTQSPASLAVSLGQRATISCRASKSVSTSGYTYMHWYQQKPGQPPKLLIYLASNLESGVPARFSGSGSGTDFTLNIHPVEEEDAAAYYCQHIRELPFTFGSGTKLEIKA
notes: Mouse hybridoma antibody
EC50 (rabTFPI K1K2 [5]): 0.0887 nM | Kd (rabTFPI K1K2 [6]): 3.55 nM | koff (rabTFPI K1K2 [6]): 0.0188 s⁻¹ | kon (rabTFPI K1K2 [6]): 5.3e+06 M⁻¹ s⁻¹

B8: 2A8-200 (antibody, human IgG1, lambda, V domains shown)
VH: QVQLVESGGGLVQPGGSLRLSCAASGFTFRSYGMDWVRQAPGKGLEWVSSIRGSRSSTYYADSVKGRFTISRDNSKNTLYLQMNSLRAEDTAVYYCARLYRYWFDYWGQGTLVTVSS
VL: DIELTQPPSVSVAPGQTARISCSGDNLRNYYAHWYQQKPGQAPVVVIFYDVNRPSGIPERFSGSNSGNTATLTISGTQAEDEADYYCQSWWDGVPVFGGGTKLTVLG
notes: also called Anti-TFPI-2A8-200
Kd (rabTFPI K1K2 [2]): 0.145 nM | koff (humTFPI K1K2 [7]): 0.00381 s⁻¹ | Kd (rabTFPI K1K2 [3]): 0.145 nM | koff (rabTFPI K1K2 [3]): 0.000277 s⁻¹ | kon (rabTFPI K1K2 [3]): 1.92e+06 M⁻¹ s⁻¹

B9: TFPI-106 (antibody, human IgG1, lambda)
heavy: not shown
light: QSVLTQPPSVSGAPGQRVTISCTGSSSNIGAGYDVHWYQQLPGTAPKLLIYGNSNRPSGVPDRFSGSKSGTSASLAITGLQAEDEADYYCQSYDSSLSGSGVFGGGTKLTVLGQPKAAPSVTLFPPSSEELQANKATLVCLISDFYPGAVTVAWKADSSPVKAGVETTTPSKQSNNKYAASSYLSLTPEQWKSHRSYSCQVTHEGSTVEKTVAPTECS
notes: IgG1-3M
Kd (rabTFPI K1K2 [2]): 4.25 nM | Kd (rabTFPI K1K2 [3]): 4.25 nM

Reference: patent publication EP4792830A2 (Pfizer Inc., dated 2026)
